The test deals with recombinant human soluble catechol-O-methyltransferase (human) (UniProt P21964).

As to bovine lactoferrin (natural protein), the IC50 of inhibition of COMT activity (methyl transfer from 14C-SAM to DBA) was found to be 1600 nM.

These data come from paper PMC6152271.
